Read-outs that look alike come from different tables or passages of the source. Some results are limits rather than exact numbers.

One experiment deals with T1, BKV serotype I VLP (BK virus serotype I, UniProt P03088 1-362).
T1 chain: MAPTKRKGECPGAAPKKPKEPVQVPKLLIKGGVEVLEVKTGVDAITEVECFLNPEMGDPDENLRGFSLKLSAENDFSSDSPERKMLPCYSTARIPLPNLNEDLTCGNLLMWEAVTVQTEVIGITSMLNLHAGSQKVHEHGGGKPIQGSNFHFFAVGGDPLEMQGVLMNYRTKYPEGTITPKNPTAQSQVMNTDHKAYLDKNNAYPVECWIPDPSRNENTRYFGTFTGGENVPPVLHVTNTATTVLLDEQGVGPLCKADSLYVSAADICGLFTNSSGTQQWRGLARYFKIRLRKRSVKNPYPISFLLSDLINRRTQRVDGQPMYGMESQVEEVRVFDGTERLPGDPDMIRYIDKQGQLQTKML

Experiment [1] addresses T2, BKV serotype I infectious virus (VP1) (BK virus serotype I, UniProt P03088 1-362).
T2 sequence (looked up): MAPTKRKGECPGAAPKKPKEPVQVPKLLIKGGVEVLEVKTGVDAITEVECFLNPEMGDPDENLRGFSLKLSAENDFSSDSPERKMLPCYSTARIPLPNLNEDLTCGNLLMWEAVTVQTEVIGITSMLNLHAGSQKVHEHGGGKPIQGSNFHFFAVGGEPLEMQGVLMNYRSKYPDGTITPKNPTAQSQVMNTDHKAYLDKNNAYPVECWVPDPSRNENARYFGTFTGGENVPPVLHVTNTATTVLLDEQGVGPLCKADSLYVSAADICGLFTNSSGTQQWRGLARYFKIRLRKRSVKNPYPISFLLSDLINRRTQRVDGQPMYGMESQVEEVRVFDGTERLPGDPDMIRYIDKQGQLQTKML
Kind of experiment: cell-based or functional assay.

Experiment [2] deals with T3, BKV serotype II chimeric infectious virus (VP1 of isolate SB) (BK virus serotype II). Kind of experiment: cell-based or functional assay.
Experiment [3] addresses T4, BKV serotype III chimeric infectious virus (VP1 of isolate AS) (BK virus serotype III). As to the kind of experiment: cell-based or functional assay.
Experiment [4] addresses T2, BKV serotype I infectious virus (VP1). Kind of experiment: cell-based or functional assay. The source holds these as a separate data set.
Experiment [5] has as its target T5, BKV serotype IV chimeric infectious virus (VP1 of strain ITA-4) (BK virus serotype IV). Kind of experiment: cell-based or functional assay.
Experiment [6] addresses T3, BKV serotype II chimeric infectious …. As to the kind of experiment: cell-based or functional assay. The source holds these as a separate data set.
Experiment [7] addresses T6, BKV serotype I VP1 pentamer (BK virus serotype I, UniProt P03088 30-297).
T6 construct: also called serotype I pentamers; BKV-VP1 serotype I pentameric protein
Kind of experiment: SPR, antibody captured on Protein A.

Experiment [8] concerns the target T4, BKV serotype III chimeric infectious …. As to the kind of experiment: cell-based or functional assay. This is another data set of the same source.
Experiment [9] addresses T2, BKV serotype I infectious virus (VP1). Kind of experiment: cell-based or functional assay. This is another data set of the same source.
For experiment [10], the target named is T5, BKV serotype IV chimeric infectious …. As to the kind of experiment: cell-based or functional assay. This is another data set of the same source.
Experiment [11] concerns the target T3, BKV serotype II chimeric infectious …. As to the kind of experiment: cell-based or functional assay. This is another data set of the same source.
Experiment [12] deals with pooled RAV virus (BKV serotype I, 20 amino acid changes throughout VP1) (BK virus serotype I). As to the kind of experiment: cell-based or functional assay.
Experiment [13] addresses JCV infectious virus, isolates Mad-1 and Mad-4 (VP1) (JC virus). As to the kind of experiment: cell-based or functional assay.

B1: 2081-36-8 (antibody, V domains shown)
VH: QVQLQQSGAGLVRPGSSVKISCKTSGYAFSSYWMNWVKQRPGQGLEWIGQIYPGNGDTNYNGKFKGKATLTADKSSNTAYIQLNSLTSEDSAVYFCAREARQGYHYAMDYWGQGTSVTVSL
VL: EIVFTQSPTTMAAFPGEKITITCSASSMINSNYLHWYQQKPGFSPKVLIYRTSNLASGVPARFSGTGSGTSFSLTIGTMEAEDVATYYCQQGSNIFTFGSGTKLEIK
One may read the EC50 (read off the curve) as the concentration at which the effect is half-maximal. A higher EC50 (read off the curve) goes with lower potency in that assay. Consider B1, for which, in the experiment with BKV serotype I VLP, the “EC50 (read off the curve)” value was around 0.3 nM. Further, in [1], the “neutralization EC50” value amounted to 0.147 µg/mL and the “neutralization EC90” value stood at 0.909 µg/mL.

B2: NEG447A (antibody, human IgG1, lambda, V domains shown)
VH: QVQLQESGPGLVKPSETLSLTCTVSGGSISRDYWSWVRQPPGAGLEWIGNIYYSGSTNYNPSLKSRVTISVATNKKQFSLKLTSVTAADTAVYYCARVPGCSSTSCIDGWFDPWGQGILVTVSS
VL: QSVLTQPPSVSAAPGQKVTISCSGSSSNIGNTYVSWYQQLPGTAPKLLIYDNNKRPSGIPDRFSGSKSGTSATLGITGLQTGDEADYYCGTWDSSLSAWVFGGGTRLTVLG
As to B2, the “activity (EC90), fold more potent than NEG447” value in [2] was around 8 fold. In addition, the “neutralization EC50” value in experiment [3] was above 100 µg/mL; in experiment [4] it was 0.0001 µg/mL; in [5], 0.011 µg/mL; in experiment [6] it was 0.11 µg/mL. The “neutralization EC90” value in experiment [3] is above 100 µg/mL; in experiment [4], 0.094 µg/mL; in experiment [5] it was 0.26 µg/mL; in [6] it was 0.84 µg/mL.

B3: EBB-C1975-A7 (antibody, V domains shown)
VH: QVQLVESGGGLVQPGGSLRLSCAASGFTVSRNYMSWVRQAPGKGLEWVSGIYSGGSTYYADSVKGRFTISRDYSKNTLSLQMNTLRVEDTAVYFCAREDEFWSGYSAGVDWGQGTLVTVSS
VL: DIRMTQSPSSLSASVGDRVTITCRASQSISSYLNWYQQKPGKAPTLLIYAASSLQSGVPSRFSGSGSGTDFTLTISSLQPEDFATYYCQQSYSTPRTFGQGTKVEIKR
As for B3, the binding result in experiment [7] is “no binding”. The “neutralization EC50” value in experiment [8] is above 100 µg/mL; in experiment [9], 0.024 µg/mL; in experiment [10] it was 0.28 µg/mL; in [11], 0.11 µg/mL. In addition, the “neutralization EC90” value in experiment [8] is above 100 µg/mL; in experiment [9] it was 5.15 µg/mL; in experiment [10], 7.79 µg/mL; in [11] it was 14.2 µg/mL.

B4: P8D11 (antibody, human IgG1, lambda)
heavy: not shown
light: QSVLTQPPSVSVAPGKTARITCGGDNIGSRPVHWYQQKPGQAPILVVYDDSNRPSGIPERFSGSNSGNTATLTISRVEAGDEADYYCQVWSSSTDHPFGGGTKVTVLGQPKAAPSVTLFPPSSEELQANKATLVCLISDFYPGAVTVAWKADSSPVKAGVETTTPSKQSNNKYAASSYLSLTPEQWKSHRSYSCQVTHEGSTVEKTVAPTECS
Regarding B4, the “EC50 of neutralization, fold change against wild-type virus” value in experiment [12] was determined as 3.9 fold. Besides, the “neutralization EC50” value turned out to be 0.092 µg/mL in experiment [3]; 0.015 µg/mL in [4]; 0.023 µg/mL in experiment [5]; 0.09 µg/mL in experiment [13]; 0.089 µg/mL in [6]. For the same molecule, the “neutralization EC90” value came out at 0.53 µg/mL in experiment [3]; 0.24 µg/mL in [4]; 0.39 µg/mL in experiment [5]; 2.76 µg/mL in [13]; 6.34 µg/mL in experiment [6].
